Patent US20240156980A1 (Molecular Partners, published 2024)
Positions count from the first letter of the chain named.

What was measured:
[1] = molecular target: T1, human EGFR on tumor cells (human, UniProt P00533 25-1210); assay: cell-based or functional assay
[2] = molecular target: T1, human EGFR on tumor cells; assay: cell-based or functional assay; remark: listed apart in the source
[3] = molecular target: T2, CD3-specific binding domain C7v122; assay: SPR (ProteOn XPR36), biotinylated Binder captured on NLC neutravidin chip as ligand, CD3-specific binding domain as analyte, PBS-T, 25 C; KD from kon/koff
T2 construct: Used as analyte in SPR; also called hC22_88B02v122
T2 chain: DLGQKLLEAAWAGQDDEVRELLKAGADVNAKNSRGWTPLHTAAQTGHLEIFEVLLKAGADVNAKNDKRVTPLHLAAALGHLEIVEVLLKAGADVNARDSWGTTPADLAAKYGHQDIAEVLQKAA
Text: (§1) An important feature of a binding moiety of the invention is its affinity towards a drug molecule. Relevant aspects include the off-rate of the binding moiety from the drug molecule and the resulting blocking half-life. Surface plasmon resonance (SPR) assays were used to determine the binding affinity of ankyrin repeat binding domains to the CD3 binding domain of a TCE drug molecule. AN SPR data was generated using a Bio-Rad ProteOn XPR36 instrument with PBS-T (0.005% Tween 20) as running buffer. A new neutravidin sensor chip (NLC) was air-initialized and conditioned according to Bio-Rad manual.

[4] = molecular target: T3, CD3-specific binding domain C7v14; assay: as above
T3 construct: Used as analyte in SPR; also called hC22_88B02v14
T3 chain: T2 chain with E20I, K23A, Q114G
Text: as §1

[5] = molecular target: T4, CD3-specific binding domain C7v127; assay: as above
T4 construct: Used as analyte in SPR; also called hC22_88B02v127
T4 chain: T2 chain with D15L, E20I, N65T, D66N, S99T, Q114R
Text: as §1

[6] = molecular target: T5, CD3-specific binding domain C7v119; assay: as above
T5 construct: Used as analyte in SPR; also called hC22_88B02v119
T5 chain: T2 chain with N65D, R68G, R97Q, Q114E
Text: as §1

[7] = molecular target: T6, CD3-specific binding domain C7v118; assay: as above
T6 construct: Used as analyte in SPR; also called hC22_88B02v118
T6 chain: T2 chain with N32D, R34Q, N65D, R68G, R97Q, Q114E
Text: as §1

[8] = molecular target: T3, CD3-specific binding domain C7v14; assay: SPR (affinity cited in Example 9; CD3-binding domain taken as C7v14); high affinity Binder #1
Text: as §1

[9] = molecular target: T3, CD3-specific binding domain C7v14; assay: SPR (affinity cited in Example 9; CD3-binding domain taken as C7v14); lower affinity Binder #3
Text: as §1

[10] = molecular target: T2, CD3-specific binding domain C7v122; assay: SPR (ProteOn XPR36), biotinylated Binder captured on NLC neutravidin chip as ligand, CD3-specific binding domain as analyte, PBS-T, 25 C; KD by equilibrium fitting
Text: as §1

[11] = molecular target: T3, CD3-specific binding domain C7v14; assay: as above
Text: as §1

[12] = molecular target: T4, CD3-specific binding domain C7v127; assay: as above
Text: as §1

[13] = molecular target: T5, CD3-specific binding domain C7v119; assay: as above
Text: as §1

[14] = molecular target: T6, CD3-specific binding domain C7v118; assay: as above
Text: as §1

[15] = molecular target: T4, CD3-specific binding domain C7v127; assay: SPR (ProteOn XPR36), biotinylated Binder on NLC chip, CD3-specific binding domain as analyte, 25 C
Text: as §1

human CD3 on T cells [16] = molecular target: T7, human CD3 on T cells (human, UniProt P07766 23-207; P09693 23-182; P04234 22-171); assay: cell-based or functional assay
T7 sequence (P07766 23-207, chain 1 of 3): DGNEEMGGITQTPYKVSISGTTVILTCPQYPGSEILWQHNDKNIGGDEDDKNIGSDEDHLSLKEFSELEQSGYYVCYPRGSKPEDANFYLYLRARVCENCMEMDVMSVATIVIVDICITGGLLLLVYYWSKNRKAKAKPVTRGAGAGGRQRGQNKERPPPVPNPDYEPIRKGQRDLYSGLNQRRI
T7 sequence (P09693 23-182, chain 2 of 3): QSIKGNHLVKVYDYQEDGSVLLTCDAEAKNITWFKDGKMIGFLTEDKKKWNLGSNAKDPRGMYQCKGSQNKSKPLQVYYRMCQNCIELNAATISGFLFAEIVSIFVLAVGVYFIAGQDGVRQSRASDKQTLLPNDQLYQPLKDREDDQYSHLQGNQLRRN
T7 sequence (P04234 22-171, chain 3 of 3): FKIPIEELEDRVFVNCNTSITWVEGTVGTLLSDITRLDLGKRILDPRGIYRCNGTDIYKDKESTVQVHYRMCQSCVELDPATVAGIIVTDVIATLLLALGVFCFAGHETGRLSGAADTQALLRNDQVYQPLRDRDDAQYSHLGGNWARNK

[17] = molecular target: T1, human EGFR on tumor cells; assay: flow cytometry on HCT 116 tumor cells, detection with anti-DARPin antibodies
Experimental: (§2) The determination of CD3 binding was performed with human CD3 on Jurkat cells, and binding to hEGFR on cells with HCT116 tumor cells, using Flow Cytometer Attune Nxt. A titration of prodrug DARPin molecules was incubated with 200′000 cells per well (for both Jurkat and HCT116 cells) for 30 min at 4° C. After washing, CD3 binding of DARPin® molecule was detected by 1:1000-diluted anti-DARPin® Antibody-Mix (1 h incubation at 4° C.) with the corresponding secondary antibody anti-rabbit IgG Alexa Fluor 488 (30 min incubation at 4° C.), which was added after washing off excess anti-DARPin Antibodies. Cells were subsequently washed and stained for livedead (aqua, 1:1000, thermofisher) and resuspended in Cytofix fixation buffer (BD Biosciences). Median of mean fluorescence intensities of Alexa Fluor 488 binding on live cells were measured by Flow Cytometry and data was plotted using GraphPad Prism 8.

human CD3 on T cells [18] = molecular target: T7, human CD3 on T cells; assay: flow cytometry on Jurkat cells, detection with anti-DARPin antibodies
Experimental: as §2

human CD3 on T cells [19] = molecular target: T7, human CD3 on T cells; assay: cell-based or functional assay; remark: listed apart in the source

B1: CD3-PDD NCL EGFR-C7v14-[NCL2]-06E05v05-6His (designed binder)
chain: MGSDLGYKLLRAAFHGQDDEVRILLAAGADVNAKDLIGQTPLHNAAWVGHLEIVEVLLKAGADVNAKDYYGNTPLHLAAHDGHLEIVEVLLKAGADVNAQDTWGETPADLATNAGHEDIAEVLQKAAGSPTPTPTTPTPTPTTPTPTPTGSDLGQKLLEAAWAGQDDEVRILLAAGADVNAKNSRGWTPLHTAAQTGHLEIFEVLLKAGADVNAKNDKRVTPLHLAAALGHLEIVEVLLKAGADVNARDSWGTTPADLAAKYGHGDIAEVLQKAASGPTPTPTTPTPTPTTPTPTPTGSDLGKKLLQAARAGQLDEVRELLKAGADVNAKDAKGLTPLHLAAYHGHLEIVEVLLKAGADVNAKDVYGWTPLHIAAASGHLEIVEVLLKAGADVNAKDALGWTPLHLAASHGHLEIVEVLLKAGADVNAQDKSGKTPADLAARAGHQDIAEVLQKAAGSHHHHHH
Question: With B1 as the binder, how does the “masking window (EC50 difference between active TCE and CD3-PDD NCL), T-cell activation with A431 cells” value [1] read?
Answer: The value was ~200 fold.

Question: And the “T-cell activation EC50 (CD25 on CD8+ T cells), EGFR+ HCT 116 tumor cells and pan T-cells” value [2]?
Answer: The value was 0.0532 nM.

Question: And the “T-cell activation EC50 (CD25 on CD8+ T cells), EGFR+++ A431 tumor cells and pan T-cells” value [2]?
Answer: The value was 0.679 nM.

B2: Binder #1 (designed binder)
chain: MRGSHHHHHHGSDLGKKLLQAARAGQLDEVRELLKAGADVNAKDAKGLTPLHLAAYHGHLEIVEVLLKAGADVNAKDVYGWTPLHIAAASGHLEIVEVLLKAGADVNAKDWLGWTPLHLAASHGHLEIVEVLLKAGADVNAQDKSGKTPADLAARAGHQDIAEVLQKAA
modifications: biotinylated for SPR (site not stated)
notes: also called 06E05
Question: Which results are given for B2?
Answer: Kd [3]: 0.21 nM; Kd [4]: 0.33 nM; Kd [5]: 0.02 nM; Kd [6]: 0.36 nM; Kd [7]: 0.44 nM; Kd [8]: < 1 nM

B3: Binder #3 (designed binder)
chain: B2 chain with W111A
modifications: biotinylated for SPR (site not stated)
notes: N-terminal His-tag; also called 06E05v05
Question: B3 was tested. Which Kd [9] did it give?
Answer: Its Kd is > 100 nM.

Question: What about the Kd [10] of the same binder?
Answer: The Kd was 149 nM.

Question: And the Kd [11]?
Answer: Its Kd is 189 nM.

Question: And the Kd [12]?
Answer: The Kd was 53.4 nM.

Question: And the Kd [13]?
Answer: The Kd was 336 nM.

Question: And the Kd [14]?
Answer: The Kd was 683 nM.

B4: Binder #4 (designed binder)
chain: B2 chain with H123A
modifications: biotinylated for SPR (site not stated)
notes: N-terminal His-tag; also called 06E05v07
Question: Does B4 bind [15]?
Answer: Result: binds

Question: What about the Kd [10] of the same binder?
Answer: The Kd was 27.2 nM.

Question: And the Kd [11]?
Answer: Its Kd is 35.3 nM.

Question: And the Kd [13]?
Answer: Its Kd is 37.5 nM.

Question: And the Kd [14]?
Answer: The Kd was 41.4 nM.

B5: Binder #2 (designed binder)
chain: B2 chain with Y79A
modifications: biotinylated for SPR (site not stated)
notes: N-terminal His-tag; also called 06E05v03
Question: Which results are given for B5?
Answer: binding result [15]: binds; Kd [3]: 92.4 nM; Kd [4]: 114 nM; Kd [6]: 141 nM; Kd [7]: 126 nM

B6: Active TCE EGFR-C7v119-6His (designed binder)
chain: MGSDLGYKLLRAAFHGQDDEVRILLAAGADVNAKDLIGQTPLHNAAWVGHLEIVEVLLKAGADVNAKDYYGNTPLHLAAHDGHLEIVEVLLKAGADVNAQDTWGETPADLATNAGHEDIAEVLQKAAGSPTPTPTTPTPTPTTPTPTPTGSDLGQKLLEAAWAGQDDEVRELLKAGADVNAKNSRGWTPLHTAAQTGHLEIFEVLLKAGADVNAKDDKGVTPLHLAAALGHLEIVEVLLKAGADVNAQDSWGTTPADLAAKYGHEDIAEVLQKAAGSHHHHHH
notes: Bispecific ankyrin repeat protein; also called active TCE (C7v119 comprising construct); anti-EGFR x anti-CD3
Question: Which results are given for B6?
Answer: T-cell activation EC50, HCT 116 tumor cells and pan T-cells (human CD3 on T cells [16]): 0.0108 nM; tumor cell killing EC50, HCT 116 tumor cells and pan T-cells (human CD3 on T cells [16]): 0.0185 nM; EC50 [17]: 0.427 nM; EC50 (human CD3 on T cells [18]): > 10 nM; tumor cell killing EC50 (LDH release), HCT 116 tumor cells and pan T-cells (human CD3 on T cells [19]): 0.0074 nM

B7: Active TCE EGFR-C7v122-6His (designed binder)
chain: B6 chain with D216N, G219R, Q248R, E265Q
notes: Bispecific ankyrin repeat protein; also called active TCE (C7v122 comprising construct); anti-EGFR x anti-CD3
Question: Which results are given for B7?
Answer: T-cell activation EC50, HCT 116 tumor cells and pan T-cells (human CD3 on T cells [16]): 0.0068 nM; tumor cell killing EC50, HCT 116 tumor cells and pan T-cells (human CD3 on T cells [16]): 0.0072 nM; EC50 [17]: 0.518 nM; EC50 (human CD3 on T cells [18]): 7.9 nM; tumor cell killing EC50 (LDH release), HCT 116 tumor cells and pan T-cells (human CD3 on T cells [19]): 0.0022 nM
